Measured values: the Immune Epitope Database (IEDB)

Experiments:
Assay in all cases: IEDB peptide-MHC binding, purified MHC/competitive/radioactivity; filed as Kd, often an IC50 or EC50 that approximates it; ≥ and ≤ were set here for values at or beyond the usual limits of such assays
HLA-A*31:01 = biological target: HLA-A*31:01
HLA-A*68:01 = biological target: HLA-A*68:01
HLA-A*11:01 = biological target: HLA-A*11:01
HLA-A*33:01 = biological target: HLA-A*33:01
HLA-A*03:01 = biological target: HLA-A*03:01
[1] = source organism: Vaccinia virus WR
[2] = source organism: Dengue virus 1 Brazil/97-11/1997
[3] = source organism: SARS coronavirus Tor2
[4] = source organism: Dengue virus 2 Jamaica/1409/1983
[5] = source organism: Vaccinia virus Copenhagen
[6] = source organism: Dengue virus 3 Martinique/1243/1999
[7] = source organism: Dengue virus 1 Singapore/S275/1990
[8] = source organism: Dengue virus 4 Philippines/H241/1956
[9] = source organism: Dengue virus 3 Sri Lanka/1266/2000
[10] = source organism: Mammarenavirus guanaritoense

With DLIKKSDAK the Kd (HLA-A*31:01; [1]) was ≥ 77900 nM, the Kd (HLA-A*68:01; [1]) was 2160 nM and the Kd (HLA-A*11:01; [1]) was ≥ 31300 nM. For the same sequence, the Kd (HLA-A*33:01; [1]) was 6630 nM and the Kd (HLA-A*03:01; [1]) was ≥ 38000 nM.
AIEKDRLDK was tested, and the Kd (HLA-A*31:01; [1]) was ≥ 77900 nM, the Kd (HLA-A*68:01; [1]) was ≥ 77700 nM and the Kd (HLA-A*11:01; [1]) was 1120 nM. The Kd (HLA-A*33:01; [1]) was ≥ 77700 nM and the Kd (HLA-A*03:01; [1]) was ≥ 78000 nM.
In the case of SMLNIMNRR, the Kd (HLA-A*31:01; [2]) is reported as 1.54 nM and the Kd (HLA-A*33:01; [2]) is reported as 68.3 nM.
With ETLNEYKQLY the Kd (HLA-A*31:01; [1]) was ≥ 41300 nM, the Kd (HLA-A*68:01; [1]) was 331 nM and the Kd (HLA-A*11:01; [1]) was 12400 nM. It also gave a Kd (HLA-A*33:01; [1]) of 541 nM and a Kd (HLA-A*03:01; [1]) of 15100 nM.
In the case of DIVNNFITK, the Kd (HLA-A*31:01; [1]) is reported as ≥ 29200 nM, the Kd (HLA-A*68:01; [1]) is reported as 86.4 nM and the Kd (HLA-A*11:01; [1]) is reported as 1010 nM. For the same sequence, the Kd (HLA-A*33:01; [1]) was ≥ 26800 nM and the Kd (HLA-A*03:01; [1]) was ≥ 40800 nM.
In the case of DIVNGKECCY, the Kd (HLA-A*31:01; [1]) is reported as ≥ 70000 nM, the Kd (HLA-A*68:01; [1]) is reported as ≥ 70200 nM and the Kd (HLA-A*11:01; [1]) is reported as ≥ 69800 nM. For the same sequence, the Kd (HLA-A*33:01; [1]) was ≥ 70000 nM and the Kd (HLA-A*03:01; [1]) was ≥ 70100 nM.
Work on RAIMATIQR yielded a Kd (HLA-A*31:01; [3]) of 45.7 nM, a Kd (HLA-A*68:01; [3]) of 72 nM and a Kd (HLA-A*11:01; [3]) of 90.9 nM. It also gave a Kd (HLA-A*33:01; [3]) of 7140 nM and a Kd (HLA-A*03:01; [3]) of 2720 nM.
For ALALGMMVLK, the Kd (HLA-A*11:01; [4]) was 13.7 nM and the Kd (HLA-A*03:01; [4]) was 24 nM.
VADLSARNK was tested, and the Kd (HLA-A*31:01; [1]) was 3030 nM, the Kd (HLA-A*68:01; [1]) was 1120 nM and the Kd (HLA-A*11:01; [1]) was 153 nM. It also gave a Kd (HLA-A*33:01; [1]) of 11700 nM and a Kd (HLA-A*03:01; [1]) of 214 nM.
In the case of FTSTNDKIK, the Kd (HLA-A*31:01; [1]) is reported as 15200 nM, the Kd (HLA-A*68:01; [1]) is reported as 113 nM and the Kd (HLA-A*11:01; [1]) is reported as 58.8 nM. For the same sequence, the Kd (HLA-A*33:01; [1]) was ≥ 77700 nM and the Kd (HLA-A*03:01; [1]) was 1190 nM.
TLFIDRGSIK showed a Kd (HLA-A*31:01; [5]) of 8010 nM, a Kd (HLA-A*68:01; [5]) of 40.9 nM and a Kd (HLA-A*11:01; [5]) of 32.4 nM. It also gave a Kd (HLA-A*33:01; [5]) of 4650 nM and a Kd (HLA-A*03:01; [5]) of 12.4 nM.
For SLFKNVRLLK, the Kd (HLA-A*31:01; [1]) was 118 nM, the Kd (HLA-A*68:01; [1]) was 335 nM and the Kd (HLA-A*11:01; [1]) was 13.2 nM. The Kd (HLA-A*33:01; [1]) was 2210 nM and the Kd (HLA-A*03:01; [1]) was 5.13 nM.
In the case of SLLKTHRMCK, the Kd (HLA-A*31:01; [3]) is reported as 452 nM, the Kd (HLA-A*68:01; [3]) is reported as ≥ 23300 nM and the Kd (HLA-A*11:01; [3]) is reported as 39 nM. The Kd (HLA-A*33:01; [3]) was 6920 nM and the Kd (HLA-A*03:01; [3]) was 13.4 nM.
Work on KTVWFVPSIK yielded a Kd (HLA-A*11:01; [4]) of 59.2 nM and a Kd (HLA-A*03:01; [4]) of 6.64 nM.
CLEWLRAKR was tested, and the Kd (HLA-A*31:01; [1]) was 76.2 nM, the Kd (HLA-A*68:01; [1]) was 294 nM and the Kd (HLA-A*11:01; [1]) was ≥ 49200 nM. It also gave a Kd (HLA-A*33:01; [1]) of 438 nM and a Kd (HLA-A*03:01; [1]) of 13100 nM.
In the case of DWLEKHGAER, the Kd (HLA-A*33:01; [2]) is reported as 127 nM.
GFAAYNRYR was tested, and the Kd (HLA-A*31:01; [3]) was 821 nM, the Kd (HLA-A*68:01; [3]) was ≥ 27000 nM and the Kd (HLA-A*11:01; [3]) was 6570 nM. The Kd (HLA-A*33:01; [3]) was 9670 nM and the Kd (HLA-A*03:01; [3]) was 5710 nM.
DLVKSSFVKK gave a Kd (HLA-A*31:01; [1]) of 169 nM, a Kd (HLA-A*68:01; [1]) of 1130 nM and a Kd (HLA-A*11:01; [1]) of 177 nM. It also gave a Kd (HLA-A*33:01; [1]) of 281 nM and a Kd (HLA-A*03:01; [1]) of 156 nM.
VLDMCAALK was tested, and the Kd (HLA-A*31:01; [3]) was 2350 nM, the Kd (HLA-A*68:01; [3]) was 2520 nM and the Kd (HLA-A*11:01; [3]) was 44.9 nM. It also gave a Kd (HLA-A*33:01; [3]) of 13600 nM and a Kd (HLA-A*03:01; [3]) of 17.6 nM.
In the case of GALDTTSYR, the Kd (HLA-A*31:01; [3]) is reported as 86.5 nM, the Kd (HLA-A*68:01; [3]) is reported as 68.4 nM and the Kd (HLA-A*11:01; [3]) is reported as 26.3 nM. The Kd (HLA-A*33:01; [3]) was 1400 nM and the Kd (HLA-A*03:01; [3]) was 6600 nM.
Work on ILAEYIRHR yielded a Kd (HLA-A*31:01; [1]) of 13.6 nM, a Kd (HLA-A*68:01; [1]) of 15 nM and a Kd (HLA-A*11:01; [1]) of 1450 nM. It also gave a Kd (HLA-A*33:01; [1]) of 48.4 nM and a Kd (HLA-A*03:01; [1]) of 77.5 nM.
In the case of CLLAISAVY, the Kd (HLA-A*31:01; [1]) is reported as 368 nM, the Kd (HLA-A*68:01; [1]) is reported as 160 nM and the Kd (HLA-A*11:01; [1]) is reported as 5040 nM. For the same sequence, the Kd (HLA-A*33:01; [1]) was 8530 nM and the Kd (HLA-A*03:01; [1]) was 987 nM.
In the case of DENKWKSAR, the Kd (HLA-A*33:01; [4]) is reported as 306 nM.
Work on ETKGVERLK yielded a Kd (HLA-A*68:01; [6]) of 33.3 nM.
In the case of LAMGIMILK, the Kd (HLA-A*68:01; [7]) is reported as 30.6 nM, the Kd (HLA-A*11:01; [7]) is reported as 9.52 nM and the Kd (HLA-A*03:01; [7]) is reported as 26.3 nM.
In the case of RVSTGSQLAK, the Kd (HLA-A*11:01; [2]) is reported as 75.7 nM and the Kd (HLA-A*03:01; [2]) is reported as 75.5 nM.
MSYSMCTGK was tested, and the Kd (HLA-A*68:01; [4]) was 81.8 nM, the Kd (HLA-A*11:01; [4]) was 34.2 nM and the Kd (HLA-A*03:01; [4]) was 4.21 nM.
Work on SLLGSALLK yielded a Kd (HLA-A*11:01; [8]) of 21.3 nM and a Kd (HLA-A*03:01; [8]) of 3.47 nM.
For AVEDEEFWK, the Kd (HLA-A*11:01; [9]) was 939 nM.
With MFAVGLLFR the Kd (HLA-A*31:01; [2]) was ≥ 66700 nM, the Kd (HLA-A*68:01; [2]) was 61.9 nM and the Kd (HLA-A*33:01; [2]) was 1.05 nM.
KSGAIKVLK showed a Kd (HLA-A*31:01; [6]) of 8.84 nM, a Kd (HLA-A*11:01; [6]) of 150 nM and a Kd (HLA-A*03:01; [6]) of 104 nM.
For MALFLEEMLR, the Kd (HLA-A*31:01; [4]) was 19.6 nM, the Kd (HLA-A*68:01; [4]) was 11.8 nM and the Kd (HLA-A*33:01; [4]) was 27.2 nM.
In the case of KISVQYNLSH, the Kd (HLA-A*11:01; source organism: Lassa virus Josiah) is reported as 203 nM.
KFQPESPAR showed a Kd (HLA-A*31:01; [8]) of 64.2 nM.
GLLLRKLTSK gave a Kd (HLA-A*03:01; [4]) of 39.6 nM.
For KGLGHDFLR, the Kd (HLA-A*31:01; [10]) was 0.134 nM, the Kd (HLA-A*68:01; [10]) was ≥ 21600 nM and the Kd (HLA-A*33:01; [10]) was ≥ 77700 nM.
QTVGPWHLGK gave a Kd (HLA-A*11:01; [8]) of 37.8 nM.
Work on MGANFRADR yielded a Kd (HLA-A*68:01; [2]) of 17 nM.
SMFEPEREK gave a Kd (HLA-A*11:01; [4]) of 1140 nM and a Kd (HLA-A*03:01; [4]) of 83.6 nM.
For RTLGRNKRPR, the Kd (HLA-A*31:01; [9]) was 6.81 nM.
For DVIGERIKR, the Kd (HLA-A*68:01; [6]) was 24.7 nM and the Kd (HLA-A*33:01; [6]) was 38.7 nM.
Work on EVHTWTEQYK yielded a Kd (HLA-A*68:01; [2]) of 15.2 nM.
